The target of experiment [1] is native VAR2CSA on NF54-CSA infected erythrocytes (Plasmodium falciparum NF54 (parent of …, UniProt Q8I639, strain)). The experiment is described as follows: flow cytometry on cells. For orientation: A flow cytometer gives signals particle by particle.
Experiment [2] concerns the target native VAR2CSA on FCR3-CSA infected erythrocytes (Plasmodium falciparum FCR3, UniProt Q6UDW7, strain). The experiment is described as follows: flow cytometry on cells.
For the next experiment, the target named is 3D7-DBL2X (Plasmodium falciparum 3D7, UniProt Q8I639, strain). The experiment is described as follows: ELISA. In general terms: ELISA stands for enzyme-linked immunosorbent assay.
A further experiment concerns the target FCR3-DBL3X (Plasmodium falciparum FCR3, UniProt Q6UDW7, strain). In words: ELISA.
In a further experiment the target is 3D7-DBL1X-3X (Plasmodium falciparum 3D7, UniProt Q8I639, strain). The experiment is described as follows: ELISA.
The target in another experiment is 3D7-DBL1X (Plasmodium falciparum 3D7, UniProt Q8I639, strain). In words: ELISA.
For experiment [3], the target named is full-length VAR2CSA recombinant protein (3D7-DBL1X-6ε) (Plasmodium falciparum 3D7, UniProt Q8I639, strain). The experiment is described as follows: SPR. (In SPR one partner is held on a chip, and binding of the other changes the refractive index at the surface.)
For a further experiment, the target named is FCR3-DBL6ε (Plasmodium falciparum FCR3, UniProt Q6UDW7, strain). In words: ELISA.
The next experiment concerns the target FCR3-DBL3X-4ε (Plasmodium falciparum FCR3, UniProt Q6UDW7, strain). The experiment is described as follows: ELISA.
The next experiment concerns the target 3D7-DBL5ε (Plasmodium falciparum 3D7, UniProt Q8I639, strain). The experiment is described as follows: ELISA.
Another experiment has as its target 3D7-DBL6ε (Plasmodium falciparum 3D7, UniProt Q8I639, strain). In words: ELISA.

As a reminder, the Kd is the concentration at which binding is half-saturated. One may read the koff as the rate constant with which the complex falls apart. For orientation: kon means the rate constant with which the complex forms.

B1: VHH874 (VHH)
VHH: QVQLQESGGGLVQAGGSLRLSCAASGRAFSDYAMGWFRQAPGKERDFVAAISWNGGNTYYSDSVKGRFTISRDNAKNTVYLQMNSLKPEDTAVYYCAANDLAVPELLMPRVETYDYWGQGTQVTVSS
Regarding B1, the binding result in experiment [1] was “binds”; in experiment [2], “binds”; in the experiment with 3D7-DBL2X, “no binding (tested: 0.3 µg/ml)”; in the experiment with FCR3-DBL3X, “no binding (tested: 0.3 µg/ml)”; with 3D7-DBL1X-3X, “binds”; with 3D7-DBL1X, “binds”.

B2: VHH905 (VHH)
VHH: QVQLQESGGGLVQAGGSLRLSCAASGRTFSSYAMGWFRQAPGKEREFVAAISWNGGSTYYADSVKGRFTISRDNAENTGYLQMNSLKPEDTAVYYCAANDLMVPELLMPRVETYDYWGQGTQVTVSS
As to B2, the binding result (in experiment [1]; in [2]; with 3D7-DBL1X-3X; with 3D7-DBL1X) was “binds” in each case.

B3: VHH861 (VHH)
VHH: QVQLQESGGGLVQAGGSLRLSCAFSGSIFKMGWYRQAPGKERELVATITHIGVTDYAEFVKGRFTISRDNAKNTVYLLMNSLKPEDTAVYYCNVASRWPDYWGQGTQVTVSS
Consider B3, for which the Kd in experiment [3] came out at 35 nM. For the same molecule, the koff in [3] was determined as 0.001 s⁻¹. In [3], the kon came to 29000 M⁻¹ s⁻¹. Besides, the binding result was “no binding (tested: 0.3 µg/ml)” with FCR3-DBL6ε, “binds” with FCR3-DBL3X-4ε, “no binding (tested: 0.3 µg/ml)” with 3D7-DBL5ε and “no binding (tested: 0.3 µg/ml)” with 3D7-DBL6ε.
